{
  "source": "patent CN107522783A",
  "about": "(HUABO BIOPHARM MEDICINE TECH SHANGHAI CO LTD, dated 2017)",
  "key": {"[1]": {"target": "T1, Recombinant human IL-17A (Sino Biological, 12047-HNAS) (human, UniProt Q16552 24-155)", "T1 construct": "mature; Bought recombinant protein; also called 人IL-17A; huIL-17A", "T1 sequence (looked up)": "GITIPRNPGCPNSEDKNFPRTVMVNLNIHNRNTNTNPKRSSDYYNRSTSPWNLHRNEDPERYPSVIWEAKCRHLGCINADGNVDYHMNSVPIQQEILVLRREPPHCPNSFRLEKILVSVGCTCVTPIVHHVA", "test": "Biacore SPR, antibody captured on anti-human capture CM5 chip, IL-17A as analyte, 1:1 model"}, "[2]": {"target": "T1, Recombinant human IL-17A (Sino …)", "test": "indirect ELISA, human IL-17A coated at 1 μg/ml"}, "[3]": {"target": "T2, Recombinant marmoset IL-17A (Sino Biological, 90287-CNAE-100) (marmoset, UniProt A0ACM8QD00 24-153)", "T2 construct": "Bought recombinant protein; also called 狨猴IL-17A", "T2 sequence": "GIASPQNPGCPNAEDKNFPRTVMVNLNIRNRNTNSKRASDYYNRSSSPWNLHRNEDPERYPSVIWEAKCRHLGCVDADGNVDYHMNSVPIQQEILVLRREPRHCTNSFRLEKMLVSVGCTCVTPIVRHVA", "test": "indirect ELISA, marmoset IL-17A coated (Table 6)"}, "[4]": {"target": "T3, Recombinant mouse IL-17A (Sino Biological, PBV10159R-010) (mouse, UniProt Q62386 26-158)", "T3 construct": "Bought recombinant protein; also called 小鼠的IL-17A", "T3 sequence (looked up)": "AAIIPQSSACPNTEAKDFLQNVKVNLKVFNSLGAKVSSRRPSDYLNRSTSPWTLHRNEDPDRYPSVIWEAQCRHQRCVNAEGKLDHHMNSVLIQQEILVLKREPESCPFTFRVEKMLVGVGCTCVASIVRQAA", "test": "indirect ELISA, mouse IL-17A coated at 1 μg/ml; paragraph 219 says 与小鼠的IL-17A无结合"}, "[5]": {"target": "T1, Recombinant human IL-17A (Sino …)", "test": "indirect ELISA, human IL-17A coated (Table 5, species cross-reactivity)"}},
  "data": [
    {"binder": "人源化抗体 (antibody, V domains shown, Expressed in CHO-K1; also called IL17-HC5-1D4/IL17-LC5-1C5; 本发明人源化抗体) VH: QVQLVQSGAEVKKPGASVKVSCKASGYTFTDYAMHWVRQAPGQGLEWMGVIGPYNDNTNYAQKFQGRVTMTVDTSTSTVYMELSSLRSEDTAIYYCARGERYFDYWGQGTTVTVSS VL: DIQMTQSPSTLSASVGDRVTITCRASDHINNWLAWYQQKPGKAPKLLIYGATSLETGVPSRFSGSGSGTEYTLTISSLQPDDFATYYCQQYWTIPLTFGQGTKLEIK", "values": [
      {"measurement": "Kd", "setting": "[1]", "result": 0.019, "unit": "nM"},
      {"measurement": "koff", "setting": "[1]", "result": 0.000181, "unit": "s⁻¹"},
      {"measurement": "kon", "setting": "[1]", "result": "9.56e+06", "unit": "M⁻¹ s⁻¹"}
    ]},
    {"binder": "嵌合抗体 (antibody, V domains shown, also called chimeric 14F10/9F6 antibody; 本发明嵌合抗体) VH: QVQLQQSGPEVVRPGVSVKISCKGSGYTFTDYAMHWVKQSHAKSLEWIGVIGPYNDNTNYNQKFKGKATMTVDKSSSTAYMEIARLTSEDSAIYYCARGERYFDYWGQGTTLTVSS VL: DIQMTQSSSYLSVSLGGRVTITCRASDHINNWLAWYQQKPGNAPRLLIYGATSLETGVPSRFSGSGSGKDYTLSITSLQTEDVATYYCQQYWTIPLTFGAGTKLELK", "values": [
      {"measurement": "EC50", "setting": "[2]", "result": 0.03, "unit": "µg/mL"},
      {"measurement": "Kd", "setting": "[1]", "result": 0.097, "unit": "nM"},
      {"measurement": "koff", "setting": "[1]", "result": 0.000101, "unit": "s⁻¹"},
      {"measurement": "kon", "setting": "[1]", "result": "1.04e+06", "unit": "M⁻¹ s⁻¹"},
      {"measurement": "EC50", "setting": "[3]", "result": 0.0264, "unit": "µg/mL"},
      {"measurement": "binding result", "setting": "[4]", "result": "no binding"},
      {"measurement": "EC50", "setting": "[5]", "result": 0.03, "unit": "µg/mL"}
    ]}
  ]
}
